Source: patent US20250195679A1, “ANTIBODY-DRUG CONJUGATE AND USE THEREOF” (SHANGHAI HUAOTA BIOPHARMACEUTICAL CO., LTD., priority 2022, published 2025)

T1: CD73 on the cell surface of Calu6 cells (Homo sapiens, UniProt P21589)
T1 construct: endogenous in cells; host or cells: Calu6
T1 sequence (P21589 27-549): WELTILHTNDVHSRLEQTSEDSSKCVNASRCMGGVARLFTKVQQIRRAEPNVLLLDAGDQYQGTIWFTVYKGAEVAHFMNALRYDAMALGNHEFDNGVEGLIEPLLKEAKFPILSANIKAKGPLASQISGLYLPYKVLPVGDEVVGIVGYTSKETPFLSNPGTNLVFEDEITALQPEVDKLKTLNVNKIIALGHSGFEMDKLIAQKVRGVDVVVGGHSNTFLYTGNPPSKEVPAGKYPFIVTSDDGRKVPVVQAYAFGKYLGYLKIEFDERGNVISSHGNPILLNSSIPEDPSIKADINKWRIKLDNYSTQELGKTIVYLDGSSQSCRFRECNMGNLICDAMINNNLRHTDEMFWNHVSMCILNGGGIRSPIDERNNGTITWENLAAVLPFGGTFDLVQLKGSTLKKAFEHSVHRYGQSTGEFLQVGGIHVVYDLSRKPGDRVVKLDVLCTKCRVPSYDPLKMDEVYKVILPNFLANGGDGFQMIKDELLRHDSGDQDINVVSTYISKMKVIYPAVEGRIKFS

B1: Antibody-drug conjugate 1: 900698 antibody cysteine-conjugated to SN-38 via Mc-VC-PAB-DMEDA-PEG linker, DAR about 7.8 (conjugate)
VH: QVQLVESGGGLVKPGGSLRLSCAASGFTFSKYAMSWIRQAPGKGLEWVAEISSGGGYINYADSVKGRFTISRDNAKNSLYLQMNSLRAEDTAVYYCARAIYYYGSSYNYYAMDYWGQGTTVTVSS
VL: DIQMTQSPSSLSASVGDRVTITCRASQDVGTAEAWYQQKPGKAPKLLIYWASTRHTGVPSRFSGSGSGTDFTLTISSLQPEDFATYYCQQYSSYPLTFGQGTKLEIK
B2: Antibody-drug conjugate 2: 900698 antibody cysteine-conjugated to SN-38 via MP2-VC-PAB-DMEDA-PEG linker, DAR about 7.8 (conjugate)
VH: B1 VH
VL: B1 VL

How the values were obtained:
[1] = test system: BxPC-3 human pancreatic cancer cells; experiment: BxPC3 CDX pancreatic cancer mouse efficacy model; type: in vivo, NPG mice; conditions: for inhibition of growth of BxPC-3 pancreatic cancer: 1 mg/kg i.p. BIW, 6 doses, FIG. 7; for inhibitory effect on tumor growth compared with 900698, Oleclumab and Uliledlimab: conjugate 1 mg/kg vs antibodies 5 mg/kg, i.p. BIW
Method: NPG mice were used to establish a BxPC-3 pancreatic cancer animal model for assaying the efficacy of the test antibodies. The BxPC-3 human pancreatic cancer cells used in this example were incubated in an RPMI-1640 medium supplemented with 10% FBS in an incubator at 37° C. with 5% CO2. Before continuous cell culturing for ten generations, 100 μL of PBS containing about 1×10^7 BxPC-3 cells was mixed uniformly with an equal volume of Matrigel. The mixture was then inoculated by subcutaneous injection into 18 NPG mice on the right side of the back near the axilla, with an inoculation volume of about 200 μL. The mice were anesthetized with 2%-5% isoflurane prior to the inoculation. On the day of inoculation, 1.0×10^7 PBMCs (100 μL) were injected via the tail vein. When the tumors grew to an average size of about 50-80 mm^3, the 18 tumor-bearing mice were randomly divided into 3 groups of 6 based on tumor volume and body weight.
Oleclumab is an anti-CD73 monoclonal antibody developed by AstraZeneca, currently in Phase 2 clinical trials. Uliledlimab is an anti-CD73 monoclonal antibody developed by I-Mab Biopharma, currently in Phase 1 clinical trials. The amino acid sequence of the heavy chain of 900543 is as set forth in SEQ ID NO. 45, and the amino acid sequence of the light chain of 900543 is as set forth in SEQ ID NO. 46. The amino acid sequence of the heavy chain of Oleclumab is as set forth in SEQ ID NO. 47, and the amino acid sequence of the light chain of Oleclumab is as set forth in SEQ ID NO. 48. The amino acid sequence of the heavy chain of Uliledlimab is as set forth in SEQ ID NO. 49, and the amino acid sequence of the light chain of Uliledlimab is as set forth in SEQ ID NO. 50.

[2] = target: T1, CD73 on the cell surface of Calu6 cells; experiment: Induction of endocytosis of CD73 antigen on cell surface (Calu6 cells, flow cytometry); type: cell-based; conditions: Example 5, 1 μg/mL, 5 h, 37° C. vs 4° C.
Method: The antibody-drug conjugate 1 and the antibody-drug conjugate 2 prepared in Example 1 and the 900698 naked antibody were diluted to 1 μg/mL with a PBS solution, with 2 replicate wells set up for each concentration. Calu6 cells in the logarithmic growth phase were taken and prepared into a cell suspension at 2×10^5 cells/mL. The cell suspension was then added at 100 μL (about 20000 cells) per well to a 96-well U-bottom plate and centrifuged at 300 g for 3 min, and then the supernatant was discarded. Then, the diluted antigen-binding proteins were each added at 100 μL/well to resuspend the cells, and the mixture was mixed uniformly and incubated at 4° C. for 30 min. […] After the incubation was completed, the cells were washed twice and centrifuged at 300 g for 3 min, and the fluorescence intensity was detected by flow cytometry.
The endocytosis efficiency of monoclonal antibodies 900698 and 900725 was compared through an endocytosis assay, with the procedures as follows: Anti-CD73 antigen-binding proteins such as the CD73 positive control antibody BMS-986179, 900698, and 900725 were diluted to 1 μg/mL with a PBS solution, with 2 replicate wells set up for each concentration. […] After the incubation was completed, the cells were washed twice and centrifuged at 300 g for 3 min, and the fluorescence intensity was detected by flow cytometry. […]

| Molecule | inhibition of growth of BxPC-3 pancreatic cancer [1] | inhibitory effect on tumor growth compared with 900698, Oleclumab and Uliledlimab [1] | Endocytosis efficiency (%) [2] |
| --- | --- | --- | --- |
| B1 | significantly inhibit the growth | superior | about 95% |
| B2 | significantly inhibit the growth | superior | about 95% |
